Assays:
Δmot #4 403-679 = assay: BIACORE
[1] = target: full-length mortalin with an His tag (recombinant, expressed in Escherichia coli); assay: BIACORE

B1: Ab (52-3) (antibody, V domains shown)
VH: QVQLQQPGAELVKPGASVKLSCKASGYTFTSYWMHWVKQRPGQGLEWIGEINPSNGRTNYNEKFKSKATLTVDKSSSTAYMQLSSLTSEDSAVYYCARSRYYGSCYFDYWGQGTTLTVSS
VL: KIVMTQAAFSNPVTLGTSASISCRSSKSLLYSNGITYLYWYLQKPGQSPQLLIYQMSNLASGVPDRFSSSGSGTDFTLRISRVEAEDVGVYYCAQNLELPWTFGGGTKLEIK
With B1 the Kd (Δmot #4 403-679) was 4.61 nM.

B2: anti-mortalin monoclonal antibody 52-3 (antibody, V domains shown)
VH: QVQLQQPGAELVKPGASVKLSCKASGYTFTSYWMHWVKQRPGQGLEWIGEINPSNGRTNYNEKFKSKATLTVDKSSSTAYMQLSSLTSEDSAVYYCARSRYYGSCYFDYWGQGTTLTVSS
VL: KIVMTQAAFSNPVTLGTSASISCRSSKSLLYSNGITYLYWYLQKPGQSPQLLIYQMSNLASGVPDRFSSSGSGTDFTLRISRVEAEDVGVYYCAQNLELPWTFGGGTKLEIK
B2 was tested, and the Kd [1] was 8.17 nM.

From patent publication US20100297664A1 (published 2010)
